Measured values published in PMC2917185.

Experiments:
[1] = target: cpSRP43 (mature) (UniProt O22265); test: fluorescence polarisation
[2] = target: LHCP (light-harvesting chlorophyll a/b binding protein), fluorescein-labeled (UniProt P07371); test: fluorescence polarisation

| Substance | Ki [1] | Kd [2] |
| --- | --- | --- |
| L18 peptide | 2200 nM | – |
| cpSRP43 ΔCD2 (domain or fragment) | – | 530 nM |
| cpSRP43 ΔCD3 (domain or fragment) | – | 886 nM |
